{"source": "patent US20030235860A1", "about": "“Interactions between AR, ER, TR2, and TR4” (priority 1999, published 2003)", "assay_type_in_all_cases": "cell-based", "key": {"[1]": {"molecular_target": "T1, interaction between the GAL4-ER and VPI6-TR2 (Homo sapiens, UniProt P03372, G400V)", "T1 construct": "GAL4-DBD fused with ER-LBD (GAL4-ER, aa 282 to 595); expressed in transfected cells; host or cells: H1299, PC-3", "T1 sequence (P03372 282-595 G400V)": "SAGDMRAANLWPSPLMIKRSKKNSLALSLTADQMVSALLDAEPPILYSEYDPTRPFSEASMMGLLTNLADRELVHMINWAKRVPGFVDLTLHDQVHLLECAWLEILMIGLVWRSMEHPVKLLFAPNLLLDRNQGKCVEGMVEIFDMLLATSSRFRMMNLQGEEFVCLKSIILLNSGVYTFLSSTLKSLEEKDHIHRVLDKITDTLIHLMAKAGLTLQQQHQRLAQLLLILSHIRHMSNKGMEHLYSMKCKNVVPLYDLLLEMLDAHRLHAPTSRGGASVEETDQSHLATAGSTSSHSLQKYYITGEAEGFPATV", "T1 sequence (P13056 1-603 partner)": "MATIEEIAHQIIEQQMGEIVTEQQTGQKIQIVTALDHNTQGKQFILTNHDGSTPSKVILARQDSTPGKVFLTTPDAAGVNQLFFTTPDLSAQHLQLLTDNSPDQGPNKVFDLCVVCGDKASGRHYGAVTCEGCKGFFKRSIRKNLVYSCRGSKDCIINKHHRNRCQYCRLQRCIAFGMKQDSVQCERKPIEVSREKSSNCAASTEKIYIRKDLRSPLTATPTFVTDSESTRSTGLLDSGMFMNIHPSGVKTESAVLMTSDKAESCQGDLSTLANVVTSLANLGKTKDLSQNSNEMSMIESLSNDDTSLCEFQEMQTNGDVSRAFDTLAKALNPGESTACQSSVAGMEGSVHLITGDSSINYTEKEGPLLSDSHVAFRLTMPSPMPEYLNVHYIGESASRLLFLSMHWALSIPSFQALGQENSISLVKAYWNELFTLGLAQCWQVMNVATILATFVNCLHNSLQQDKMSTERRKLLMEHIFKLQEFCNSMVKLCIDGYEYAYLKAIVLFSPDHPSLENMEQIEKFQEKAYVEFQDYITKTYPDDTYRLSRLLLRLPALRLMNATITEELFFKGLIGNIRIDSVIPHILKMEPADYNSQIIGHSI", "test": "Mammalian two-hybrid assay GAL4-ER / VP16-TR2", "conditions": "PC-3 cells; presence of E2; co-transfection of blocker plasmid", "protocol": "Transfections were performed using the calcium-phosphate precipitation method described above. […] 3 μg of a VPI6-TR2 expression plasmid and 3 μg pG5-CAT reporter plasmid. CAT assays were performed as described above.\nCells were also transfected with a β-galactosidase expression plasmid, pCMV-β-gal, as an internal control for transfection efficiency."}, "TR2": {"molecular_target": "T2, TR2 (Homo sapiens, UniProt P13056)", "T2 sequence (P13056 1-603)": "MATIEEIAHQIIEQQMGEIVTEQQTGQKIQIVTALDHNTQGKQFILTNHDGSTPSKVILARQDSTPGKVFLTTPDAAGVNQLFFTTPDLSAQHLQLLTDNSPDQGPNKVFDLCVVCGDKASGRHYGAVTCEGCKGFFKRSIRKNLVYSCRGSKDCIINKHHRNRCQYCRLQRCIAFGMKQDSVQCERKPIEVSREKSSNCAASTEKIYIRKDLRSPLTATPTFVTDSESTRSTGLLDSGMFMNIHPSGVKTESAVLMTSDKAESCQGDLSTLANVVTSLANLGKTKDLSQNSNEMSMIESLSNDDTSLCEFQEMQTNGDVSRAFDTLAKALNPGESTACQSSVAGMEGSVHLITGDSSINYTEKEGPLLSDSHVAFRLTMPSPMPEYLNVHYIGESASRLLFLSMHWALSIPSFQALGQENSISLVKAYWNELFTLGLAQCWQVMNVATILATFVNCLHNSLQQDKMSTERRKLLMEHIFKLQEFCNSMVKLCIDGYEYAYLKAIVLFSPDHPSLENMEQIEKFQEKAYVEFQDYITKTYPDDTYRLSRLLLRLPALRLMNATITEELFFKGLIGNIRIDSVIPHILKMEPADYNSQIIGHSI", "test": "TR2-mediated transactivation reporter assay", "conditions": "PC-3 cells; 1 μg expression plasmid", "protocol": "Transfections and chloramphenicol acetyltransferase (CAT) assays were performed as described previously. Yeh, & Chang, Proc. Natl. Acad. Sci. 93, 5517-5521 (1996). Briefly, 4×10^5 cells were plated in 60-mm dishes and cultured for 24 h, and then the medium was changed to phenol red free DMEM with 5% charcoal-stripped FCS 2 h before transfection. The cells were co-transfected with TR2 and/or ER expression plasmids with 2 μg of TR2-TK-CAT reporter or 1 μg of ERE-CAT reporter gene plasmid, as indicated in the Figures, by using the calcium phosphate precipitation method. A β-gal actosidase expression plasmid, pCMV-β-gal, was transfected in all transfections as an internal control for normalizing transfection efficiency. The total amount of DNA was adjusted up to 10.5 μg with parent vectors, pSG5 or pCMV in each transcriptional activity assay. […] The cells were then harvested and whole cell extracts were used for CAT assay. The CAT activity was quantitated by Phosphorlmager (Molecular Dynamics). Data are presented as means±S.D. of at least three independent experiments.\nThe CAT reporter assay was used to study the potential consequence of the formation of heterodimers between the TR2 and ER. […] More specifically, H1299 cells were transiently cotransfected with 2 μg of DR4-TK-CAT reporter plasmid and 3 μg of TR2 expression plasmid together with increasing amounts of the ER expression vector. […] Cells were also transfected with internal control reporter plasmid, pCMV-β-gal, as an internal control for transfection efficiency. Luciferase activity was then analyzed following manufacturer's instructions (Promega). […] Similar results were obtained when the DR4-TK-CAT reporter with DR1-HBV-LUC were replaced, another TR2 response element (FIG. 7C).\nThis conclusion was further confirmed by using the chimera receptor, TR2-androgen receptor (AR) ARp-TR2, which was generated by swapping TR2 proximal box (P-box) with that found in the AR. […] Luciferase activity was then analyzed following manufacturer's instructions (Promega). […]"}, "MCF7-TR2 cells": {"tested_on": "MCF7-TR2 cells", "test": "Cell cycle profile by flow cytometry, MCF7-TR2 cells", "conditions": "3 days, E2, or E2 with doxycycline-induced TR2", "protocol": "(A) Growth assays were performed by MTT method as instructed by manufacturer (Sigma). 5×10^3 MCF7-pBIG and MCF7-TR2 cells were seeded in 24-well plates and incubated in RPMI with 10% CD-FCS for 48 h. […] After 3- and 5-day treatment, cells were harvested for MTT assay. Data represents the relative folds of MTT O.D.570 values at day 5 divided by that at day 3. […] Cells were then trypsinized and fixed overnight in 70% Ethanol. After cells were incubated with 1 mg/ml RNase A (Sigma) and propidium iodide (Roche Molecular Biochemicals), the DNA contents of cells were measured by a flow cytometry. (C) Percentage of growth suppression by TR2. MCF7-TR2 cells were seeded at 5×10^3 cells per well in 24-well plates. […] The treatments were changed every two days. The indices of cell growth were determined by MTT assay. The MTT values from cells without doxycycline were set as 100% in each kind of treatment. Values are represented by the percentage of growth suppression from cells with doxycycline to that without doxycycline."}, "pS2": {"tested_on": "pS2", "test": "Northern blot of pS2 in MCF-7-TR4 cells", "conditions": "2 μg/ml Dox, E2"}}, "note": "No end group written: not given here.", "data": [{"molecule": "ER-#6: interaction blocker, ER fragment aa 312-340, as HA-tagged peptide, expression plasmid or cleaved peptide (ADQMVSALLDAEPPILYSEYDPTRPFSEA; also: HA tag (position not given here); UniProt P03372 312-340, looked up, fragment)", "values": [{"measurement": "ER-TR2 interaction (GAL4-ER / VP16-TR2, pG5-CAT)", "setting": "[1]", "result": "suppressed"}]}, {"molecule": "TR2: human testicular orphan nuclear receptor 2, 603 amino acids (protein, UniProt P13056 1-603, looked up, full-length, human testicular orphan nuclear receptor 2, 603 amino acids) MATIEEIAHQIIEQQMGEIVTEQQTGQKIQIVTALDHNTQGKQFILTNHDGSTPSKVILARQDSTPGKVFLTTPDAAGVNQLFFTTPDLSAQHLQLLTDNSPDQGPNKVFDLCVVCGDKASGRHYGAVTCEGCKGFFKRSIRKNLVYSCRGSKDCIINKHHRNRCQYCRLQRCIAFGMKQDSVQCERKPIEVSREKSSNCAASTEKIYIRKDLRSPLTATPTFVTDSESTRSTGLLDSGMFMNIHPSGVKTESAVLMTSDKAESCQGDLSTLANVVTSLANLGKTKDLSQNSNEMSMIESLSNDDTSLCEFQEMQTNGDVSRAFDTLAKALNPGESTACQSSVAGMEGSVHLITGDSSINYTEKEGPLLSDSHVAFRLTMPSPMPEYLNVHYIGESASRLLFLSMHWALSIPSFQALGQENSISLVKAYWNELFTLGLAQCWQVMNVATILATFVNCLHNSLQQDKMSTERRKLLMEHIFKLQEFCNSMVKLCIDGYEYAYLKAIVLFSPDHPSLENMEQIEKFQEKAYVEFQDYITKTYPDDTYRLSRLLLRLPALRLMNATITEELFFKGLIGNIRIDSVIPHILKMEPADYNSQIIGHSI", "values": [{"measurement": "DR1-HBV-LUC activity", "setting": "TR2", "result": "induced"}, {"measurement": "Cells in G1", "setting": "MCF7-TR2 cells", "result": 58.1, "unit": "%"}, {"measurement": "Cells in S", "setting": "MCF7-TR2 cells", "result": 14.5, "unit": "%"}]}, {"molecule": "TR4: human testicular orphan nuclear receptor 4, SEQ ID NO:16; expressed from plasmid or in vitro translated (protein) MTSPSPRIQIISTDSAVASPQRIQGSEPASGPLSVFTSLNKEKIVTDQQTGQKIQIVTAVDASGSPKQQFILTSPDGAGTGKVILASPETSSAKQLIFTTSDNLVPGRIQIVTDSASVERLLGKTDVQRPQVVEYCVVCGDKASGRHYGAVSCEGCKGFFKRSVRKNLTYSCRSSQDCIINKHHRNRCQFCRLKKCLEMGMKMESVQSERKPFDVQREKPSNCAASTEKIYIRKDLRSPLIATPTFVADKDGARQTGLLDPGMLVNIQQPLIREDGTVLLATDSKAETSQGALGTLANVVTSLANLSESLNNGDTSEIQPEDQSASEITRAFDTLAKALNTTDSSSSPSLADGIDTSGGGSIHVISRDQSTPIIEVEGPLLSDTHVTFKLTMPSPMPEYLNVHYICESASRLLFLSMHRARSIPAFQGLGQDCNTSLVRACWNELFTLGLAQCAQVMSLSTILAAIVNHLQNSIQEDKLSGDRIKQVMEHIWKLQEFCNSMANWDIDGYEYAYLKAIVLFSPDHPGLTSTSQIEKFQEKAQMELQDYVQKTYSEDTYRLARILVRLPALRLMSSNITEELFFTGLIGNVSIDSIIPYILKMETAEYNGQITGVSL", "values": [{"measurement": "Expression of ER endogenous target gene pS2", "setting": "pS2", "result": "repress"}]}]}
